Assay results as given in PMC6255772, “Enhanced anti-metastatic bioactivity of an IGF-TRAP re-engineered to improve physicochemical properties” (Scientific Reports, 2018).

Experiments:
recombinant human IGF-1 = biological target: T1, recombinant human IGF-1 (Homo sapiens, UniProt P05019); experiment: SPR; Biacore T200, competition in solution: 5 nM hIGF-1 or hIGF-2 incubated 1 h with 0.12-500 nM IGF-TRAP, injected over about 4000 RU MEDI-573 amine-coupled to a CM-5 chip; free ligand read 10 s after end of injection; PBS 0.05% Tween 20, 25 °C; conditions: both partners purified
T1 construct: human insulin-like growth factor 1, recombinant; also called rhIGF-1; hIGF-1; source: bought: Sigma-Aldrich
T1 sequence (P05019 49-118): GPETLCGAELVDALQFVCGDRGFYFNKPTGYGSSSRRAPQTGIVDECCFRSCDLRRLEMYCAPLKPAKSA

recombinant human IGF-2 = biological target: T2, recombinant human IGF-2 (human); experiment: as above; conditions: both partners purified
T2 construct: human insulin-like growth factor 2, recombinant; also called rhIGF-2; hIGF-2; source: bought: Sigma-Aldrich

B1: dusigitumab (MEDI-573) (antibody, V domains shown)
VH: QVQLVQSGAEVKKPGASVKVSCKASGYTFTSYDINWVRQATGQGLEWMGWMNPNSGNTGYAQKFQGRVTMTRNTSISTAYMELSSLRSEDTAVYYCARDPYYYYYGMDVWGQGTTVTVSS
VL: QSVLTQPPSVSAAPGQKVTISCSGSSSNIENNHVSWYQQLPGTAPKLLIYDNNKRPSGIPDRFSGSKSGTSATLGITGLQTGDEADYYCETWDTSLSAGRVFGGGTKLTVL
**Q.** Does B1 bind (recombinant human IGF-1)?
**A.** Result: binds

**Q.** Does B1 bind (recombinant human IGF-2)?
**A.** Result: binds
